System: MS2 coat protein
Experiment: apparent KD of MS2 coat protein; designed switch direction (-1 OFF switch, 1 ON switch): -1; higher = weaker reporter binding
Outline: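 Apparent KD, taken as the median over clusters for each design, was obtained by curve-fitting normalised cluster fluorescence. Designed RNA switches had been transcribed on Illumina chips by stalled E. coli RNA polymerase and titrated with SNAP-549-labelled MS2 coat protein, doubling from 0.7 or 1.5 nM to 3 µM.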

[1] = input ligand: microRNA oligo, concentration not stated
[2] = Eterna round: R95, input ligand: microRNA oligo, concentration not stated
[3] = Eterna round: R95, input ligand: FMN 200 uM
[4] = Eterna round: R95, input ligand: none

Row | Sequence | apparent KD of MS2 coat protein (input ligand: FMN 200 uM) [nM] | apparent KD of MS2 coat protein [1] [nM] | apparent KD of MS2 coat protein (input ligand: none) [nM] | apparent KD of MS2 coat protein [2] [nM] | apparent KD of MS2 coat protein [3] [nM] | apparent KD of MS2 coat protein [4] [nM]
1 | UGUACUAACACGAUAGUGUUAGUACUAUAAGCUUGUGUUACAUGAGGAUCACCCAUGUCCUCAUAAGCUCGUCUUGA [Mat - Sensor v3 - Turn-off var 2 - D93] (Eterna round: R96, puzzle: Sensor v3, turn-off variant 2) | 36.8 | 472 | 38.9 | – | – | –
2 | UACAUGAGGAUCACCCAUGUUUUGUCGUGUAUGGUAUUUAUCUAGGAUAUCAAGUUACUUAUUUAUGAGAAGGAGAAUAUUAAU [JMF's solution 30] (Eterna round: R96, puzzle: Exclusion NG 3) | 39.2 | 21.2 | 25.2 | – | – | –
3 | GGAAGGUGAGGAUAUACAAAGACGGAAACGUCAGGUGAGAGACAUGAGGAUCACCCAUGUAGAAGGCACGGAGA [AK-MS2ROC-r4-exclusion2-16.1] (Eterna round: R97, puzzle: Exclusion 2) | 279 | – | 74.4 | – | – | –
4 | ACGUUUUUUGAGGAUAUGCGACGUUUUUUCGUCGUAGAAGGCGAUACAUGAGGAUCACCCAUGUUUAUGGGCAU [LRO-Ex6-18] (puzzle: Exclusion 6) | – | – | – | 129 | – | –
5 | CUGAGGUAGCGGUCCUAUGACAUGAGGAUCACCCAUGUACCUUGCUUUGAGCUAUUUGCUCGUCUUAUGAUUCUCGG [Mat - Sensor v3 - turn-off var 1 - JL Mod - D40] (Eterna round: R96, puzzle: Sensor v3, turn-off variant 1) | 788 | 655 | 758 | – | – | –
6 | AGCUGUGGCCGAGGAUAUCUAAACUCAAUAACCGAAAUAUAAUCGGACAUGAGGAUCACCCAUGUAGAGAAGGCGGUCUCAGCA [Eli eng2 - 081] (Eterna round: R96, puzzle: Exclusion NG 2) | – | 28 | – | – | – | –
7 | AACCAUGAGCGAGGAUAUCACCCUACGGAGUGGUGAGAAGGCGCAACAUGAGGAUCACCCAUGUACAAAUGCGGGACCCUUUUC [Zaorredila] (Eterna round: R96, puzzle: Exclusion NG 1) | – | 21.6 | – | – | – | –
8 | UGUUGUCGCGUAGGAUAUGAGGAUCACCCAUAUAGAGGAUAUGAAAAGAAGGCUCUGAGGAUUACCCAGAAGGACGGGACAACU [pwkr exNG2 2xF5 2xFMN.22] (Eterna round: R96, puzzle: Exclusion NG 2) | 1180 | 132 | 155 | – | – | –
9 | GGCAAUAUGUAGGAUAUCGUAAUGGAAACAUUACGAGAAGGGCAAACAUGAGGAUCACCCAUGUUCCUUAAGCC [Mat - Exclusion 6 - Eli Mod - D69] (puzzle: Exclusion 6) | – | – | – | 15 | 21.5 | 18.4
10 | GCAGCAUAGUAAACAUACUGUUACAUGAGGAUCACCCAUGUACAGGAUAUGGUCUGGAUUACAGGCCAGAAGGGUACAAGCUGC [Eli exng3 - 023] (Eterna round: R96, puzzle: Exclusion NG 3) | 8.36 | 13 | 12.8 | – | – | –
11 | UAUAAGCUAGGAUAUACUGGCACACAACUCAUAAAUCCACGACAUGAGGAUCACCCAUGUAGAAGGAGCAAAUA [EX2 A.27] (Eterna round: R97, puzzle: Exclusion 2) | 18.8 | – | 14.4 | – | – | –
12 | AAUUAGUAUGUGAGGAUAUUGACGGAAUGACUUGUUAAGAAGGCACAUGAGGAUCACCCAUGUGGGAAGUCACG [JR_BMEx4_Sub012] (Eterna round: R97, puzzle: Brourd's mod of Exclusion 4) | 57.1 | – | 18.1 | – | – | –
13 | GAUAUAGAGCAGGAUAUCUUAGAUAUGUAAUAAAGAGAAGGGCUCACAUGAGGAUCACCCAUGUGGUCCUAGAU [JL Dibiri mod 13] (puzzle: Exclusion 6) | – | – | – | 20.7 | – | –
14 | CAGACGGCCGUAGGAUAUGCAGCAAAGACGUGAGCAGAAGGACGAUACAUGAGGAUCACCCAUGUACGUGGGUAGUGCGCAUGC [Veustean] (Eterna round: R96, puzzle: Exclusion NG 1) | 19.8 | 14.4 | 20.8 | – | – | –
15 | CUUCAAUCACCAGAGCUCACACUUAUACCUGCUCUGGUGACAUGAGGAUCACCCAUGUUUUUUGCCCGUCUUAUCUU [Sensor v3, turn-off variant 2 (MOD of Leso v.3)] (puzzle: Sensor v3, turn-off variant 2) | – | – | – | 33 | 86.6 | 97.4
16 | CGUCCGAACUCAGGAUAUCAACUUAACAACAUGAGGAUCACCCAUGUGGCCUGUAAAACCCGAGAUGAGAAGGGAGGGCGGGCC [Usceondiat] (Eterna round: R96, puzzle: Exclusion NG 2) | 13.6 | 15.4 | 19.7 | – | – | –
17 | AAUACAAGCUAUUGAUCCCACAUGAGGAUCACCCAUGUUCCUGGCCGUGAGACAAGGUUGACAAUAGCUCGUCUUAU [Sensor-V1 #45] (Eterna round: R97, puzzle: Sensor, turn-off variant 1) | 285 | – | 299 | – | – | –

Row | Sequence | apparent KD of MS2 coat protein (input ligand: FMN 200 uM) [nM] | apparent KD of MS2 coat protein [1] [nM] | apparent KD of MS2 coat protein (input ligand: none) [nM] | apparent KD of MS2 coat protein [2] [nM] | apparent KD of MS2 coat protein [3] [nM] | apparent KD of MS2 coat protein [4] [nM]
18 | UAUAUGUCAGGAUAUCGAUUGGAAUGGAAUUUAGUUUUGGUUGAGAAGGGACAUGAGGAUCACCCAUGUUUUUC [EX4 #62] (Eterna round: R97, puzzle: Exclusion 4) | 76.7 | – | 32.1 | – | – | –
19 | UCGGCGCGAGGAUAUACGUUUGCUUUUUAGGGUCGUGGCGUACAUGAGGAUCACCCAUGUAGAAGGCGCGCCGC [Apr-15 SS2-29] (puzzle: Exclusion 2) | – | – | – | 14.6 | – | –
20 | AGUACUAACACGAAAGUGUUAGUACAAAUGAGCUUUUGAACAUGAGGAUCACCCAUGUCCUCAUAAGCUCGUCUUAA [Mat - Sensor v2 - var 2 - Mod - D174] (Eterna round: R96, puzzle: Sensor v2, turn-off variant 2) | 27.4 | 408 | 32.2 | – | – | –
21 | AAUAACAAGCCGAUCCUCGACAUGAGGAUCACCCAUGUGCUCGUCUUGUAAAGUACUAUCACGAAAGUGAUAGUACA (Eterna round: R97, puzzle: Sensor, turn-off variant 1) | 174 | – | 419 | – | – | –
22 | AGUACUAACACGAAUGUGUUAGUACAAUAAGCUUGUGAAACAUGAGGAUCACCCAUGUCCUCAUAAGCUCGUCUUAU [salish99_TOv2_r3_032] (puzzle: Sensor v3, turn-off variant 2) | – | – | – | 779 | 16.3 | 15.5
23 | GGUUGGCGAGGAUAUACAUGAGGAUCACCCAUGUGAGAGAAAGAAGUGAGGAAGAAAAGUAGAAGGCGCUGACG [salish99_ex3_r3_005] (puzzle: Exclusion 3) | – | – | – | 196 | 542 | 59
24 | AGUACUAACACGAGAGUGUUAGUACUAUAAGCUUGUGUUACAUGAGGAUCACCCAUGUCCUCAUAGGCUCGUCUUAA [Mat - Sensor v3 - Turn-off var 2 - D82] (puzzle: Sensor v3, turn-off variant 2) | – | – | – | 75.5 | 75.8 | 81.4
25 | AUAAUGUAAGGAUAUCAGUCGUUAAUAAUUUAAUAAUCGACUGAGAAGGUACAUGAGGAUCACCCAUGUGAUCA [E4/8-B1] (Eterna round: R97, puzzle: Exclusion 4) | 350 | – | 930 | – | – | –
26 | AGUCAGAGAGGAUAUACAUGGGAAAAAAAAGUAAGAUCCCUACAUGAGGAUCACCCAUGUAGAAGGCUCUGACA [Ex2 Design 139: Sub-opt 3] (Eterna round: R96, puzzle: Exclusion 2) | – | 17.3 | – | – | – | –
27 | UAUUAGCAAGUAAGAUCCCACAUGAGGAUCACCCAUGUGCUCGUCUUAUAAGGUACUGUGACGAAAGUCACGGUACC [Sensor 3, v1 - 95 v1] (Eterna round: R97, puzzle: Sensor, turn-off variant 1) | 18.3 | – | 19.2 | – | – | –
28 | AAGAAACAUGAGGAUCACCCAUGUGAGGAUAUGAUGAAGAAAAGAAAAGAAAGAAGAGUCAGAAGGCACAAAGG [salish99-ex1_r3_064] (puzzle: Exclusion 1) | – | – | – | 55.9 | 96 | 69.2
29 | CGGCAUGUAGAAGGAUAUCUGCACGUUUAGUGCAGAGAAGGUCUAACAUGAGGAUCACCCAUGUAGAUCAUUAACCGAUUAAUU [ENG1/8-A2] (Eterna round: R96, puzzle: Exclusion NG 1) | 19.5 | 10.4 | 12.1 | – | – | –
30 | CGGAUGUUAGGAUAUUAGUAGUAGUCAGAAUAGACUAUUACUGAGAAGGAACAUGAGGAUCACCCAUGUUUCCG [Eli x4 4.19] (Eterna round: R97, puzzle: Exclusion 4) | 16.5 | – | 17.4 | – | – | –
31 | UGAAAACAUGAGGAUCACCCAUGUAAGGAUAUGCAAAAGGAUAUAGAAGGAAAAAAAAGCAGAAGGUACAAAGG [salish99-ex1_r3_095] (puzzle: Exclusion 1) | – | – | – | 86.6 | 99.4 | 60.3
32 | CAGUCGAUAAGAUCAAUUAAUUAACAUGAGGAUCACCCAUGUGAGGAUAUCAGCUCGUUUAGAGCUGAGAAGGCACAACGACUG [ExNG3/17-A2] (Eterna round: R96, puzzle: Exclusion NG 3) | 305 | 32.4 | 37.9 | – | – | –
33 | CUAAUGUAUCAGGAUAUGAUUAUAUGUGUUGGAUCAGAAGGGAUAACAUGAGGAUCACCCAUGUUGUGGAGUGA [JR_Ex6_Sub036] (Eterna round: R97, puzzle: Exclusion 6) | 202 | – | 234 | – | – | –
